Experimental data published in patent publication US9696316B2, “Conformationally dynamic peptides” (SYSTEM OF SYSTEMS ANALYTICS, INC., priority 2009, dated 2017).

System: not listed separately
Assay: Additional work on stability of the β-sheet conformation of variants
Assay type: physicochemical
Settings: relative to parent sequence

| Substance | effect of the substitutions on the β-sheet conformation of the probe |
| --- | --- |
| KLVFFAEDVGDNKHADIELMK (KLVFFAEDVGDNKHADIELMK) [AD327, P22, with point mutation S26D, I31D] | destabilize the β-sheet conformation |
| KLVFFAEDVGDNKHAIIELMK (KLVFFAEDVGDNKHAIIELMK) [AD325, P22, with point mutation 526D] | destabilize the β-sheet conformation |
| KLVFFAEDVGSNKDADIELMK (KLVFFAEDVGSNKDADIELMK) [AD323, P22, with point mutations H29D and I31D] | destabilize the β-sheet conformation |
| KLVFFAEDVGSNKDAIIELMK (KLVFFAEDVGSNKDAIIELMK) [AD328, P22, with point mutation H29D] | destabilize the β-sheet conformation |
| KLVFFAEDVGSNKGAISGLMK (KLVFFAEDVGSNKGAISGLMK) [Peptide 132S, Wildtype, with I32S point mutation] | destabilize the β-sheet conformation |
| KLVFFAEDVGSNKHADIELMK (KLVFFAEDVGSNKHADIELMK) [AD330, P22, with point mutation I31D] | destabilize the β-sheet conformation |
| KLVFFAEDVGSNKHAIIEDMK (KLVFFAEDVGSNKHAIIEDMK) [AD329, P22, with point mutation L34D] | destabilize the β-sheet conformation |
| KLVSFAEDVGSNKHAIIELMK (KLVSFAEDVGSNKHAIIELMK) [GM6 variation 1, P22, with point mutation F19S] | destabilize the β-sheet conformation |
| KLVSFAEDVGSNKHAIIEPMK (KLVSFAEDVGSNKHAIIEPMK) [GM6, P22, with point mutations F19S, L34P] | destabilize the β-sheet conformation |

Target: Aβ42 oligomer (Homo sapiens, UniProt P05067)
Sequence (P05067 672-713 limits assumed): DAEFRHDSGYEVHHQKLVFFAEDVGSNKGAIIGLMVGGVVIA
Assay: Aqueous Aβ oligomer assay, pyrene fluorescence
Assay type: binding
Settings: aqueous assay
Description: The conformation of peptide probe bound to the target protein can also be detected by measuring pyrene fluorescence, on the peptide alone and in combination with the target protein. […] The excimer fluorescence associated with the β-sheet conformation has a different wavelength than the monomer fluorescence associated with the alpha-helix conformation, and the excimer:monomer fluorescence ratio is 9:1. […] The addition of Aβ42 oligomer target protein results in a dose-dependent shift of the excimer:monomer fluorescence ratio to 20:1 at the highest Aβ42 oligomer concentration (0.3 μM). This change in excimer:monomer fluorescence ratio reflects a corresponding conformational change in the peptide, that results in increased β-sheet conformation, and decreased α helix conformation.
An Aβ oligomer assay may be conducted in an aqueous solvent, such as water. […] Upon introduction of Aβ oligomer, the fluorescence profile shifts to primarily self-fluorescence (monomeric) (see FIG. 11), which is associated with reduced β-sheet structure, or increased alpha helix structure.
As discussed above, Peptide 22 (SEQ ID NO: 2) undergoes a conformational change upon interaction with Aβ oligomer. FIG. 11 illustrates the fluorescence spectra for Peptide 22 labeled at each terminus with pyrene and incubated in aqueous conditions for several hours at room temperature in 10 mM Hepes (pH 7.0). […] (solid line=Time 0; dashed line=3 hours; dotted line=18 hours).
Peptide 22 (100 nM) is incubated in water for 15 hours at room temperature with equimolar concentrations ([…]) of several potential Aβ substrates: Aβ42 oligomer (type 1); Aβ42 oligomer (type 2); Aβ1-42 monomer; Aβ1-40 monomer; Aβ1-42 fiber; Aβ1-40 fiber; bovine serum albumin (control substrate); and carbonic anhydrase (control substrate).
With reference to FIG. 13A, Peptide 22 (70 nM) is incubated with […] synthetic Aβ42 oligomer at 25 C, and fluorescence emission spectra is recorded after 3 hours incubation. […] (solid line—no Aβ42 oligomer; dashed/dot line—30 nN Aβ42 oligomer; large dashed line—100 nN Aβ42 oligomer; small dashed line—300 nN Aβ42 oligomer)

| Substance | reactivity with Aβ42 oligomers (transition from pyrene excimer fluorescence to pyrene self-fluorescence) |
| --- | --- |
| KAAA KLVFFAEDVGSNKHAIIELMK (KAAAKLVFFAEDVGSNKHAIIELMK) [Peptide 45, Salt bridge at G29H and G33E; Ala additions to increase alpha-helicity] | react with Aβ42 oligomers |
| KLVFFAEDVGSNKKAIIELMK (KLVFFAEDVGSNKKAIIELMK) [Peptide 22 variation 2, Salt bridge at G29K and G33E] | react with Aβ42 oligomers |
| KLVFFAEDVGSNKRAIIELMK (KLVFFAEDVGSNKRAIIELMK) [Peptide 22 variation 1, Salt bridge at G29R and G33E] | react with Aβ42 oligomers |
